According to PMC10439915, “Development of an interfering peptide M1-20 with potent anti-cancer effects by targeting FOXM1” (Cell Death & Disease, 2023):
One block for each molecule: values may come before it. Non-standard residues stand in square brackets, D forms with d. No end group written: not given here.

Key:
MDA-MB-231 cells = assay: CCK-8 cell viability; assay type: cell-based, human; conditions: 0, 10, 20, 40, 80, 160 µM, 36 h, n = 3
Method: (§1) Fig. 2 The screening of the FOXM1-interacting peptide M1-20. A The diagram of peptide array (P1-P9) in which peptides (20-mer) covering FOXM1_689-748 with a shifting window of five residues were conjugated to the cell-penetrating peptide TAT and produced by solid-phase peptide synthesis. The P1-P9 peptides were biotin-labeled respectively and added in MDA-MB-231 cell lysates (500 μg) which were incubated with Streptavidin Agarose Resin to pull down biotin-peptide/protein complexes. Biotin and FOXM1 proteins in samples were detected by Western Blotting with certain antibodies. 10% of cell lysates (50 μg) were used as input controls. […] The absorbance at 450 nm and the relative cell viability in each well was calculated. […] GST-tag and Biotin-tag were detected by Western Blotting with certain antibodies. […] E The curve represented the quantification of binding affinity between GFP-labeled FOXM1_1-138 and P5 or P5mut by Microscale Thermophoresis (MST, Monolith NT.115, NanoTemper). Data points indicated the fraction of FOXM1_1-138-bound peptide (ΔNormal/Amplitude) at different concentrations, and curves indicated the calculated fits. […] F The biotin signals indicated the peptide stability of P5 and M1-20 in HEK293T cell lysates analyzed by Western Blotting. The levels of peptide were quantified by Image J software and graphed with GraphPad Prism 9 (n = 3). […]

endogenous FOXM1 = target: T1, endogenous FOXM1 (Homo sapiens, UniProt Q08050); assay: Biotin-peptide pull-down of endogenous FOXM1 from MDA-MB-231 cell lysates; assay type: binding; conditions: biotin-labeled peptide, MDA-MB-231 cell lysates (500 μg), Streptavidin Agarose Resin, Western Blotting
T1 construct: endogenous in cells; host or cells: MDA-MB-231 cell lysates
T1 sequence (Q08050 1-763): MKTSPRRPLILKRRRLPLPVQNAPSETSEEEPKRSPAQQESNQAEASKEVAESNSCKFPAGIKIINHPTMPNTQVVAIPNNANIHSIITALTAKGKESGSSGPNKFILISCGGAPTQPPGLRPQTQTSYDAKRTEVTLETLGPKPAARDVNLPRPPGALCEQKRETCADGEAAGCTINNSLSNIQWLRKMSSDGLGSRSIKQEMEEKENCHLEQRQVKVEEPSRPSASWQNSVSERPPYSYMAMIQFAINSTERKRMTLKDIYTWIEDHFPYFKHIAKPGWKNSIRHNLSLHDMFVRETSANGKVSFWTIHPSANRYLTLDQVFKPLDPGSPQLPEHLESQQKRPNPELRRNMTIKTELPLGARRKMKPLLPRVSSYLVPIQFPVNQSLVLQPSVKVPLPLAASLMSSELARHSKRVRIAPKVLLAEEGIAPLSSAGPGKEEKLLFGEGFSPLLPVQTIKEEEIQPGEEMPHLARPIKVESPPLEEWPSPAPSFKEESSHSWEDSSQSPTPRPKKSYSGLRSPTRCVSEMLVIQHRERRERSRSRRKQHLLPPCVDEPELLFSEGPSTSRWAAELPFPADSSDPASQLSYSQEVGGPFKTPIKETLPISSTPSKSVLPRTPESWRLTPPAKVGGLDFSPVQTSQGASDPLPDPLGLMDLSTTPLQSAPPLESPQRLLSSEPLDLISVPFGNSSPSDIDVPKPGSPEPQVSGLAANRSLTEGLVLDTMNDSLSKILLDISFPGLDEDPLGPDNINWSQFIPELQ
Method: as §1

FOXM1_1-138 [1] = target: T2, FOXM1_1-138 (Homo sapiens, UniProt Q08050); assay: Biotin-peptide pull-down of recombinant FOXM1_1-138; assay type: binding; conditions: biotin-labeled peptide (10 μg), recombinant protein (50 μg), Streptavidin Agarose Resin
T2 construct: The cDNA of FOXM1(1-138aa) was PCR amplified from pCMV-FOXM1 plasmid; EGFP (C); His (pET-32a vector; Ni-Sepharose purification); made in house; host or cells: E. coli Rosetta/DE3
T2 sequence (Q08050 1-138 isoform Q08050-2): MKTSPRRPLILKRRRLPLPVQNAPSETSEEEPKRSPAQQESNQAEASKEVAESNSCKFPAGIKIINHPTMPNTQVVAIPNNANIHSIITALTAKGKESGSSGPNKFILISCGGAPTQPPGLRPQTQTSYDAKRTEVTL
Method: as §1

FOXM1_1-138 [2] = target: T2, FOXM1_1-138; assay: Microscale thermophoresis binding of peptide to GFP-labeled FOXM1_1-138; conditions: MST, Monolith NT.115, peptide 0.030 to 1000 μM in PBS with 0.05% Tween-20, 25 °C, mean of three independent measurements
Method: Measurements were performed by Monolith NT.115 instrument (NanoTemper). The data were analyzed by MO. Affinity Analysis v2.3 NT software (NanoTemper) to determine interaction parameters. Details were described in the supplemental materials and methods.
as §1, with “The P1-P9 peptides were biotin-labeled respectively and added in MDA-MB-231 cell lysates (500 μg) which were incubated with Streptavidin Agarose Resin to pull down biotin-peptide/protein complexes.” left out, “antibodies.” for “antibodies. 10% of cell lysates (50 μg) were used as input controls.”

[3] = target: T3, GFP-labeled FOXM1_(1-138) (human, UniProt Q08050-3 1-138); assay: MST; GFP-labeled FOXM1(1-138) with peptide at different concentrations; Monolith NT.115 (NanoTemper), MO.Affinity Analysis v2.3; three independent measurements; conditions: both partners purified
T3 construct: The fluorescent partner of the MST; Details are in the supplemental materials and methods
T3 sequence (looked up): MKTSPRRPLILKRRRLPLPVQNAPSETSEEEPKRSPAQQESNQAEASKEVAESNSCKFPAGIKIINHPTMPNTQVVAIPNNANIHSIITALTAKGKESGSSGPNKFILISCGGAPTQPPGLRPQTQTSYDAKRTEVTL

His-FOXM1 = target: T4, His-FOXM1 (UniProt Q08050-2 1-748); assay: EMSA; plus M1-20 peptide (5 and 10 uM in legend; 0.5, 1 and 2 uM in Suppl. Methods); DNA binding not disrupted; 20 mM Tris-Cl pH 7.6, 50 mM KCl, 10% glycerol, 0.5 mM EDTA, 0.2 mM DTT, 30 min on ice; 4% native PAGE in 0.5x TBE; conditions: protein: recombinant; tags: His; label: 5'-FAM on forward strand (hot); blunt
T4 sequence: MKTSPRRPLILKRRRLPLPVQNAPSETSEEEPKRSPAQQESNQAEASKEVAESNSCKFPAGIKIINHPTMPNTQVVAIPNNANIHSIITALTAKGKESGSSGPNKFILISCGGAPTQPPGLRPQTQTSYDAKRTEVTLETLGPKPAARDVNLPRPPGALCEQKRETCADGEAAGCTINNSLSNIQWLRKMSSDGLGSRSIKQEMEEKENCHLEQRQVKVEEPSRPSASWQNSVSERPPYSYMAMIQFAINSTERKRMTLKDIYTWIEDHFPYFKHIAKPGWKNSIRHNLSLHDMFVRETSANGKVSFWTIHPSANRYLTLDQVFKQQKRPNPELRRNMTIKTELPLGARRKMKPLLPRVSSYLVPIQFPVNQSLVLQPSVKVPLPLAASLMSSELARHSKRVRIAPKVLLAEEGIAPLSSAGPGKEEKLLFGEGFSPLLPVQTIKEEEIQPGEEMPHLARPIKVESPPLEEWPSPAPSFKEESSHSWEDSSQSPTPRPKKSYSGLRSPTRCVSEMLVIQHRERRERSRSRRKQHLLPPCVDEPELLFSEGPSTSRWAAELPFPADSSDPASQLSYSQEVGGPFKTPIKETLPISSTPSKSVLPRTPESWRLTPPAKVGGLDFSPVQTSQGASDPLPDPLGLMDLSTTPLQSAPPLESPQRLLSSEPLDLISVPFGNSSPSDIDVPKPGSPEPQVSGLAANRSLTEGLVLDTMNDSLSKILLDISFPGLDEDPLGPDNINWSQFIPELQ

Molecule: P5: the sequence 709-728aa of FOXM1, 20-mer conjugated with TAT cell-penetrating sequence; natural parent peptide of M1-20
inhibition of MDA-MB-231 cells in the P1-P9 library screen (MDA-MB-231 cells): significantly inhibited MDA-MB-231 breast cancer cells in a dose-dependent manner
interaction with endogenous FOXM1 (pull-down) (endogenous FOXM1): interacted with endogenous FOXM1 with variable affinities
binding to recombinant FOXM1_1-138 (pull-down) (FOXM1_1-138 [1]): bind to recombinant GST-FOXM1_1-138 protein

Molecule: LDTMNDSLSKILLDISFPGL (also: conjugated to TAT cell-penetrating sequence) [P5]
Kd [3]: 43.1 µM

Molecule: [dL]G[dP][dF][dA][dA][dD][dA][dL][dI][dK][dS][dL][dS][dD][dN][dM][dT][dD][dL] [M1-20mut]
Kd [3]: 386 µM

B1: FAM-labeled FOXM1 EMSA probe (dsDNA)
DNA 1: TTTGTTTATTTGTTTGTTTATTTG
DNA 2: CAAATAAACAAACAAATAAACAAA
binding result (His-FOXM1): binds

Other lines, results leading:

KD, binding affinity to FOXM1_1-138 (FOXM1_1-138 [2]): unmeasurable
Molecule: P5mut: P5 with three residues mutated (L721A, I723A, S724A) (LDTMNDSLSKILADAAFPGL; also: conjugated to TAT cell-penetrating sequence (as parent P5))

Kd [3]: 5.66 µM
Molecule: [dL]G[dP][dF][dS][dI][dD][dL][dL][dI][dK][dS][dL][dS][dD][dN][dM][dT][dD][dL] [M1-20]
